The numbers were not newly measured in PMC8291337, which cites them from elsewhere.

Usually Kd stands for a measure of binding affinity in units of concentration.

The data set concerns the target Spike protein (SARS-CoV-2) (UniProt P0DTC2).

Consider CD147 (from UniProt P35613), for which the Kd was 185 nM.
